In patent US20060269977A1, “Recombinant antibody recognizing dioxin and gene encoding the antibody” (priority 2003, published 2006):
Substitutions are numbered along the chain they refer to.

B1: anti-2,3,4,7,8-PeCDF scFv: scFv: H-chain variable region of Dx3860, linker, L-chain variable region of Dx3860 (SEQ ID No. 56), expressed in E. coli Origami B (DE3) (protein)
scFv: EVKLVESGGGLVKPGGSLKLSCAASGFTFSSYAMSWVRQTPEKRLEWVASFSNGGITYYPDSVKGRFTISRDNARNILYLQMTSLRSEDTAIYYCARGYGPAYWGQGTLVTVSSGGGGSGGGGSGGGGSQAVVTQESALTTSPGETVTLTCRSSTGAVTTLNYANWVQEKPDHLFTGLIGNTNNRAPGVPARFSGSLIGDKAALTITGAQTEDEAIYFCALWYSNHLVFGGGTKLTVLG
modifications: scFv fragment Dx3860HL
B2: Dx3150: monoclonal antibody recognizing 2,3,4,7,8-PeCDF, produced by hybridoma Dx3150r1; H/L variable regions SEQ ID Nos. 7 and 8 (antibody, V domains shown)
VH: DVQLQESGPGLVKPSQSLSLTCSVTGYSITSGFYWNWIRQFPGNKLEWMGYISYDGYNNYNPFLKNRVSITRDTSENQFFLKLHSVTTEDTATYYCVSYGSRRGVTYWGQGTTLTVSS
VL: QAVVTQESALTTSPGETVTLTCRSSTGAVTTSNYANWVQEKPDHLFTGLIGNTNNRAPGVPARFSGSLIGDKAALTITGAQTEDEAIYFCALWYNTHLVFGGGTRLTVLG
modifications: Polypeptide of H-chain variable region of monoclonal antibody Dx 3150; Polypeptide of L-chain variable region of monoclonal antibody Dx 3150
B3: H-chain variable region polypeptide: H-chain variable region of Dx3860, polypeptide having the amino acid sequence of SEQ ID No. 5, from vector pET22Δ-Dx3860H (antibody, V domains shown)
VH: EVKLVESGGGLVKPGGSLKLSCAASGFTFSSYAMSWVRQTPEKRLEWVASFSNGGITYYPDSVKGRFTISRDNARNILYLQMTSLRSEDTAIYYCARGYGPAYWGQGTLVTVSA
modifications: Polypeptide of H-chain variable region of monoclonal antibody Dx 3860
B4: Dx3860: monoclonal antibody recognizing 2,3,4,7,8-PeCDF, produced by hybridoma Dx3860r1; H/L variable regions SEQ ID Nos. 5 and 6 (antibody, V domains shown)
VH: B3 VH
VL: B2 VL with S32L, N95S, T96N, R105K
modifications: Polypeptide of H-chain variable region of monoclonal antibody Dx 3860; Polypeptide of L-chain variable region of monoclonal antibody Dx 3860

Columns and labels:
Assay type in all cases: binding
[1] = Indirect competitive immunoassay using anti-2,3,4,7,8-PeCDF scFv; details: 2,3,4,7,8-PeCDF solution in 20% DMSO; immobilized 2,3,4,7,8-PeCDF derivative-BSA conjugate; FIG. 9
Protocol: Determination of 2,3,4,7,8-PeCDF by an Indirect Competitive Immunoassay Using Anti-2,3,4,7,8-PeCDF scFv
One μg/ml of 2,3,4,7,8-PeCDF derivative-BSA conjugate (50 μl) was added to a microtiter plate, and allowed to react at room temperature for one hour. The wells of the microtiter plate were washed with PBS(−) containing 0.05% Tween 20. A solution of Block Ace (Yukijirushi Co.) was then added to the wells, and the wells were blocked by allowing them to stand at room temperature for two hours. After the microtiter plate was washed, a solution (25 μl) of 2,3,4,7,8-PeCDF prepared in various concentrations (a solution in 20% DMSO) and a solution (25 μl) of anti-2,3,4,7,8-PeCDF scFv were added to the wells, and allowed to react at room temperature for 0.5 to 1 hour. After the microtiter plate was again washed, a solution of anti-tetra-His antibody (Qiagen Co.) 2000-fold diluted was added to the wells, and allowed to react at room temperature for one hour. Subsequently, a solution (50 μl) of peroxidase-labeled anti-mouse IgG (recognizing γ-chain) antibody (KPL Co.) 3000-fold diluted was added to the wells, and allowed to react at room temperature for one hour. […] The reaction was terminated by adding 1 M H3PO4 (50 μl), and OD450 (control: OD600) was measured using a plate reader (Labsystems Co.).

[2] = Hybridoma supernatant EIA: antibody titer to immobilized 2,3,4,7,8-PeCDF derivative-BSA conjugate and its inhibition by 2,3,4,7,8-PeCDF; details: titer inhibited by 2,3,4,7,8-PeCDF dissolved in 20% DMSO
Protocol: After 7 to 10 days from the onset of the cultivation, a portion of the supernatant of the culture in the wells in which proliferation of hybridomas was observed was taken and added to a microtiter plate to which the 2,3,4,7,8-PeCDF derivative-BSA conjugate was immobilized. After allowing to react at room temperature for one hour, the plate was washed with PBS(−) containing 0.05% Tween 20. A peroxidase-labeled anti-mouse IgG antibody (recognizing γ-chain) (KPL Co.) was then added to the plate and allowed to react at room temperature for one hour, and the plate was then washed in the same manner. A substrate solution (TMB substrate, KPL Co.) was added to the plate, the peroxidase activity on the plate was measured, and the antibody titer in the supernatant of the culture was determined.

[3] = EIA reactivity of H-chain variable region polypeptide fractions to immobilized 2,3,4,7,8-PeCDF-BSA conjugate; details: fractions eluted from nickel-chelate column; EIA on immobilized 2,3,4,7,8-PeCDF-BSA conjugate; FIG. 10
Protocol: Escherichia coli Origami B (DE3) (Novagen Co.) was transformed using expression vector pET22Δ-Dx3860H which was prepared by removing the sequence between restriction enzyme sites Bam HI and Not I containing the L-chain variable region of expression vector pET22Δ-Dx3860HL. Using the transformant, the expression of the H-chain variable region polypeptide (polypeptide having the amino acid sequence as shown in SEQ ID No. 5) was carried out in the same manner as in the case of the scFv.
The H-chain variable region polypeptide obtained as an inclusion body was reconstituted on a nickel-chelate column as described above, and the product was then isolated and purified using imidazole. Protein concentrations of the fractions eluted from the chelate column were determined by measuring absorbance (280 nm), and the reactivity to an immobilized 2,3,4,7,8-PeCDF-BSA conjugate was also investigated by an EIA method. As a result, it was recognized that the fractions of the H-chain variable region polypeptide have an anti-2,3,4,7,8-PeCDF activity as shown in FIG. 10.

Molecule	recognition of 2,3,4,7,8-PeCDF by monoclonal antibody [2]	further results
B1		determination of 2,3,4,7,8-PeCDF by indirect competitive immunoassay [1]: can be determined in a highly sensitive manner
B2	recognizing 2,3,4,7,8-PeCDF	
B3		binding activity to 2,3,4,7,8-PeCDF (anti-2,3,4,7,8-PeCDF activity) [3]: has a binding activity to 2,3,4,7,8-PeCDF
B4	recognizing 2,3,4,7,8-PeCDF	
